Experimental data taken from paper PMC6420115 (Science (New York, N.y.), 2018).
Like-named read-outs stand apart in the source and are kept apart here.

Legend:
minimal NANP3 peptide [1] = biological target: T1, minimal NANP3 peptide (Plasmodium falciparum (isolate NF54).)
T1 chain: NANPNANPNANP

[2] = biological target: T2, NANP3 peptide (minimal NANP repeat peptide) (Plasmodium falciparum (isolate NF54).); assay: ITC; conditions: both partners purified
T2 construct: source: bought: PSL GmbH, Heidelberg
T2 chain: NANPNANPNANP

[3] = biological target: T3, NANP5 peptide (NANP 5-mer peptide of the PfCSP repeat) (Plasmodium falciparum (isolate NF54).); assay: ITC; conditions: both partners purified
T3 construct: source: bought: Alpha Diagnostic International
T3 chain: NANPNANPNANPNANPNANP

[4] = biological target: T4, full length PfCSP (NF54 strain) (Plasmodium falciparum (isolate NF54)., UniProt P19597); assay: BLI; conditions: both partners purified
T4 construct: also called NF54 PfCSP; circumsporozoite protein; source: HEK293F, transient expression, purified (HisTrap Ni/NTA, SEC)

[5] = biological target: T5, full-length PfCSP with 38 NANP repeats (Plasmodium falciparum (isolate NF54)., UniProt P19597); assay: SEC-MALS; 1210 Fab–PfCSP complex; molar mass from two measurements; conditions: both partners purified
T5 construct: also called circumsporozoite protein; NF54

minimal NANP3 peptide [6] = biological target: T1, minimal NANP3 peptide; assay: SPR; independent NANP3 SPR affinity measurements of original and mutated antibodies; who was immobilised is not given in the source; conditions: both partners purified

T4 sequence (P19597 19-374): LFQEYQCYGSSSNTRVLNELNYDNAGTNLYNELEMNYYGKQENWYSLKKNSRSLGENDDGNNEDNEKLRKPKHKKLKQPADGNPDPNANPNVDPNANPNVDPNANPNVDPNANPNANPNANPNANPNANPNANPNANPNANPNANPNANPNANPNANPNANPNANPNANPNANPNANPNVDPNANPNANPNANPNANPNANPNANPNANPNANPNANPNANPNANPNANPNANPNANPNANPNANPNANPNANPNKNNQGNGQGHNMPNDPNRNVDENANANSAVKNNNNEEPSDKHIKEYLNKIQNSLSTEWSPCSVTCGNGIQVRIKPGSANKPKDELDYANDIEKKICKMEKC
T5 sequence (P19597 19-374): as above

B1: 1210_H.N31_Srev (antibody, V domains shown)
VH: QVQLVESGGGVVQPGRSLRLSCAASGFTFSSYGMHWVRQAPGKGLEWVAVIWYDGSKKYYADSVKGRFTISRDNSKNTLYLQMNSLRAEDTAVYYCARVRDSSDYYGDAFDIWGQGTMVTVSS
VL: DIQMTQSPSTLSASVGDRVTITCRASQSISSWLAWYQQKPGKAPKLLIYKASNLESGVPLRFSGSGSGTEFTLTISSLQPDDFATYYCQQYNNYWTFGQGTKVEIK
binding result (minimal NANP3 peptide [1]): binds

B2: 2163 (antibody, V domains shown)
VH: QVQLVESGGGVVQPGRSLRLSCAASGFTFSSYGMHWVRQAPGKGLEWVAVIWYDGSNKYYADSVKGRFTISRDNSKNTLYLQMNSLRAEDTAVYYCARVQTTTGGGSCCPFDYWGQGTLVTVSS
VL: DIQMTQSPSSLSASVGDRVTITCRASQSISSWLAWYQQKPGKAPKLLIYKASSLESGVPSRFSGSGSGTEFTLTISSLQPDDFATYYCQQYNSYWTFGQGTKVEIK
binding result (minimal NANP3 peptide [1]): binds

B3: 2163_H.V50_Imut (antibody, V domains shown)
VH: QVQLVESGGGVVQPGRSLRLSCAASGFTFSSYGMHWVRQAPGKGLEWVAIIWYDGSNKYYADSVKGRFTISRDNSKNTLYLQMNSLRAEDTAVYYCARVQTTTGGGSCCPFDYWGQGTLVTVSS
VL: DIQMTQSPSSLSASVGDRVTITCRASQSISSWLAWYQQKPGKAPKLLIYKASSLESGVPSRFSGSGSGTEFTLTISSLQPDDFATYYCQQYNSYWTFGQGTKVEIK
binding result (minimal NANP3 peptide [1]): binds

B4: 2163_H.S31_Nmut (antibody, V domains shown)
VH: QVQLVESGGGVVQPGRSLRLSCAASGFTFSNYGMHWVRQAPGKGLEWVAVIWYDGSNKYYADSVKGRFTISRDNSKNTLYLQMNSLRAEDTAVYYCARVQTTTGGGSCCPFDYWGQGTLVTVSS
VL: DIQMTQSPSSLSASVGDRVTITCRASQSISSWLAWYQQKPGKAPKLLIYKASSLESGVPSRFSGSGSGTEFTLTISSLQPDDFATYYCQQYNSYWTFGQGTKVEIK
binding result (minimal NANP3 peptide [1]): binds

B5: 2163_H.N56_Kmut (antibody, V domains shown)
VH: QVQLVESGGGVVQPGRSLRLSCAASGFTFSSYGMHWVRQAPGKGLEWVAVIWYDGSKKYYADSVKGRFTISRDNSKNTLYLQMNSLRAEDTAVYYCARVQTTTGGGSCCPFDYWGQGTLVTVSS
VL: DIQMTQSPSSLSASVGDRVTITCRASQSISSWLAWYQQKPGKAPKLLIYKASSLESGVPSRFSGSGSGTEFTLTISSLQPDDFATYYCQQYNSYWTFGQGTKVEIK
binding result (minimal NANP3 peptide [1]): binds

B6: 2163_KN (antibody, V domains shown)
VH: QVQLVESGGGVVQPGRSLRLSCAASGFTFSSYGMHWVRQAPGKGLEWVAVIWYDGSKKYYADSVKGRFTISRDNSKNTLYLQMNSLRAEDTAVYYCARVQTTTGGGSCCPFDYWGQGTLVTVSS
VL: DIQMTQSPSSLSASVGDRVTITCRASQSISSWLAWYQQKPGKAPKLLIYKASSLESGVPSRFSGSGSGTEFTLTISSLQPDDFATYYCQQYNNYWTFGQGTKVEIK
binding result (minimal NANP3 peptide [1]): binds

B7: 1210 Fab (recombinant Fab for ITC) (Fab, V domains shown)
VH: QVQLVESGGGVVQPGRSLRLSCAASGFTFSNYGMHWVRQAPGKGLEWVAVIWYDGSKKYYADSVKGRFTISRDNSKNTLYLQMNSLRAEDTAVYYCARVRDSSDYYGDAFDIWGQGTMVTVSS
VL: DIQMTQSPSTLSASVGDRVTITCRASQSISSWLAWYQQKPGKAPKLLIYKASNLESGVPLRFSGSGSGTEFTLTISSLQPDDFATYYCQQYNNYWTFGQGTKVEIK
notes: source: HEK293F, transiently expressed, purified (KappaSelect, SEC)
stoichiometry N [2]: 0.73
stoichiometry N [3]: 1.8

B8: 1210_H.K56_Nrev_K.N93_Srev Fab (recombinant Fab for ITC) (Fab, V domains shown)
VH: QVQLVESGGGVVQPGRSLRLSCAASGFTFSNYGMHWVRQAPGKGLEWVAVIWYDGSNKYYADSVKGRFTISRDNSKNTLYLQMNSLRAEDTAVYYCARVRDSSDYYGDAFDIWGQGTMVTVSS
VL: DIQMTQSPSTLSASVGDRVTITCRASQSISSWLAWYQQKPGKAPKLLIYKASNLESGVPLRFSGSGSGTEFTLTISSLQPDDFATYYCQQYNSYWTFGQGTKVEIK
notes: as for B7
stoichiometry N [2]: 0.94
stoichiometry N [3]: 1.7

B9: 1210 H.D100Ymut_K.N92Ymut Fab (recombinant Fab for ITC) (Fab, V domains shown)
VH: QVQLVESGGGVVQPGRSLRLSCAASGFTFSNYGMHWVRQAPGKGLEWVAVIWYDGSKKYYADSVKGRFTISRDNSKNTLYLQMNSLRAEDTAVYYCARVRDSSYYYGDAFDIWGQGTMVTVSS
VL: DIQMTQSPSTLSASVGDRVTITCRASQSISSWLAWYQQKPGKAPKLLIYKASNLESGVPLRFSGSGSGTEFTLTISSLQPDDFATYYCQQYYNYWTFGQGTKVEIK
notes: as for B7
stoichiometry N [2]: 0.88
stoichiometry N [3]: 2.1

B10: 1210 germline antibody Fab (recombinant Fab for ITC) (Fab, V domains shown)
VH: QVQLVESGGGVVQPGRSLRLSCAASGFTFSSYGMHWVRQAPGKGLEWVAVIWYDGSNKYYADSVKGRFTISRDNSKNTLYLQMNSLRAEDTAVYYCARVRDSSDYYGDAFDIWGQGTMVTVSS
VL: not shown
notes: as for B7
stoichiometry N [2]: 0.92
stoichiometry N [3]: 1.9

B11: 1210 IgG (antibody, V domains shown)
VH: QVQLVESGGGVVQPGRSLRLSCAASGFTFSNYGMHWVRQAPGKGLEWVAVIWYDGSKKYYADSVKGRFTISRDNSKNTLYLQMNSLRAEDTAVYYCARVRDSSDYYGDAFDIWGQGTMVTVSS
VL: DIQMTQSPSTLSASVGDRVTITCRASQSISSWLAWYQQKPGKAPKLLIYKASNLESGVPLRFSGSGSGTEFTLTISSLQPDDFATYYCQQYNNYWTFGQGTKVEIK
notes: IgG1; source: HEK293F, purified (Protein G Sepharose)
Kd [4]: < 0.001 nM

B12: 1210_YY IgG (1210 H.D100Ymut_K.N92Ymut) (antibody, V domains shown)
VH: QVQLVESGGGVVQPGRSLRLSCAASGFTFSNYGMHWVRQAPGKGLEWVAVIWYDGSKKYYADSVKGRFTISRDNSKNTLYLQMNSLRAEDTAVYYCARVRDSSYYYGDAFDIWGQGTMVTVSS
VL: DIQMTQSPSTLSASVGDRVTITCRASQSISSWLAWYQQKPGKAPKLLIYKASNLESGVPLRFSGSGSGTEFTLTISSLQPDDFATYYCQQYYNYWTFGQGTKVEIK
notes: as for B11
Kd [4]: 0.66 nM

B13: 1210 antigen-binding fragment (Fab) (Fab, V domains shown)
VH: QVQLVESGGGVVQPGRSLRLSCAASGFTFSNYGMHWVRQAPGKGLEWVAVIWYDGSKKYYADSVKGRFTISRDNSKNTLYLQMNSLRAEDTAVYYCARVRDSSDYYGDAFDIWGQGTMVTVSS
VL: DIQMTQSPSTLSASVGDRVTITCRASQSISSWLAWYQQKPGKAPKLLIYKASNLESGVPLRFSGSGSGTEFTLTISSLQPDDFATYYCQQYNNYWTFGQGTKVEIK
stoichiometry N [5]: ~12 Fabs per PfCSP

B14: 1210_H.K56_N^rev (antibody, V domains shown)
VH: QVQLVESGGGVVQPGRSLRLSCAASGFTFSNYGMHWVRQAPGKGLEWVAVIWYDGSNKYYADSVKGRFTISRDNSKNTLYLQMNSLRAEDTAVYYCARVRDSSDYYGDAFDIWGQGTMVTVSS
VL: DIQMTQSPSTLSASVGDRVTITCRASQSISSWLAWYQQKPGKAPKLLIYKASNLESGVPLRFSGSGSGTEFTLTISSLQPDDFATYYCQQYNNYWTFGQGTKVEIK
binding result (minimal NANP3 peptide [6]): binds

B15: 1210_K. N93_S^rev (antibody, V domains shown)
VH: QVQLVESGGGVVQPGRSLRLSCAASGFTFSNYGMHWVRQAPGKGLEWVAVIWYDGSKKYYADSVKGRFTISRDNSKNTLYLQMNSLRAEDTAVYYCARVRDSSDYYGDAFDIWGQGTMVTVSS
VL: DIQMTQSPSTLSASVGDRVTITCRASQSISSWLAWYQQKPGKAPKLLIYKASNLESGVPLRFSGSGSGTEFTLTISSLQPDDFATYYCQQYNSYWTFGQGTKVEIK
binding result (minimal NANP3 peptide [6]): binds
